In PMC5158307, “Substrate specificity characterization for eight putative nudix hydrolases. Evaluation of criteria for substrate identification within the Nudix family” (Proteins, 2016):

Tests used:
Assay in all cases: purified protein
Conditions in all cases: pH 7.6, 37 °C, 1 mM MgCl2, 10 mM Tris-HCl
purified protein [1] = substrate: Cc1cn([C@@H]2O[C@H](COP(=O)(O)OP(=O)(O)OP(=O)(O)O)[C@@H](O)[C@H]2O)c(=O)nc1N
Excerpt: (§1) Pi-sensor (MDCC-PBP) fluorescence, PPase coupled on Q5LBB1_BACFN

purified protein [2] = substrate: Cc1cn([C@H]2C[C@H](O)[C@@H](COP(=O)(O)OP(=O)(O)OP(=O)(O)O)O2)c(=O)nc1N
Excerpt: as §1

purified protein [3] = substrate: Nc1nc(=O)n([C@H]2C[C@H](O)[C@@H](COP(=O)(O)OP(=O)(O)OP(=O)(O)O)O2)cc1CO
Excerpt: as §1

purified protein [4] = substrate: Nc1nc(=O)n([C@H]2C[C@H](O)[C@@H](COP(=O)(O)OP(=O)(O)OP(=O)(O)O)O2)cc1O
Excerpt: as §1

B1: Q5LBB1_BACFN (Bacteroides fragilis NCTC 9343) (protein)
chain: MKSIEVVAAVIRLGEKYLCVQRGQTKFSYTSFRYEFPGGKVEEGESLQEALQREIMEEMDYVIEVGEKLLTVHHTYPDFEITMHAFLCHPVGQRYVLKEHIAAQWLSTREMAILDWAEADKPIVRKISEQ
Km (purified protein [1]): 2.5 ± 1.2 µM | kcat (purified protein [1]): 16 ± 3 s⁻¹ | kcat/Km (purified protein [1]): 6.7e+06 ± 2.4e+06 M⁻¹ s⁻¹ | Km (purified protein [2]): 3.0 ± 0.8 µM | kcat (purified protein [2]): 14 ± 1 s⁻¹ | kcat/Km (purified protein [2]): 4.8e+06 ± 1e+06 M⁻¹ s⁻¹ | Km (purified protein [3]): 10 ± 5 µM | kcat (purified protein [3]): 45 ± 11 s⁻¹ | kcat/Km (purified protein [3]): 4.4e+06 ± 1e+06 M⁻¹ s⁻¹ | Km (purified protein [4]): 9.2 ± 2.8 µM | kcat (purified protein [4]): 0.78 ± 0.11 s⁻¹ | kcat/Km (purified protein [4]): 85000 ± 14000 M⁻¹ s⁻¹
